Patent US20220370545A1, “INTEGRIN RECEPTOR ALPHA V BETA 3 AND ITS LIGAND INVOLVED IN CHRONIC ITCH” (North Carolina State University, priority 2019, published 2022)

How the values were obtained:
TRPA1 = target: T1, TRPA1 (Mus musculus, UniProt Q8BLA8); experiment: AITC (mustard)-induced calcium response in DRG neurons (specificity control); format: cell-based; details: perfusion with 100 nM cilengitide
T1 construct: endogenous in cells; host or cells: primary mouse dorsal root ganglion neurons
Experimental: Before imaging, cells were incubated in 350 μL of complete media containing 1 μM Fura-2 AM (Enzo Life Sciences, Farmingdale, New York, United States of America) for 30 min at 37° C. with 5% CO2. During imaging, the cells were perfused with a buffer containing the following: 135 mM sodium chloride, 3.2 mM potassium chloride, 2.5 mM magnesium chloride, 2.8 mM calcium chloride, 667 μM monobasic sodium phosphate, 14.2 mM sodium bicarbonate, and 10.9 mM D-glucose (all from VWR International, Radnor, Pennsylvania, United States of America) with a pH between 7.00 and 7.40. The buffer and the holding plate were kept at 37° C. while imaging. Imaging data was collected on a TE200 inverted microscope using NIS Elements software (Nikon, Melville, New York, United States of America). Cells were exposed to 340 nm and 380 nm wavelengths for 100 ms and the A340/A380 ratio was calculated. Traces were analyzed using Excel and responses greater than 10% of the baseline were counted. Each data point in the scatter plots represented one coverslip.

[1] = system: MC903-induced spontaneous chronic itch in mice; experiment: MC903-induced mouse model of atopic dermatitis, spontaneous scratching; format: in vivo; details: cilengitide 100 nM by tail vein injection, Day 10
Experimental: C57BL6 mice (Jackson Labs, Ellsworth, Maine, United States of America) were applied daily with MC903 (4 nmol) and vehicle (97% ethanol) after brief anesthesia. Skin thickness was measured using cutimeter as described (Fukuyama et al., 2015). Scratching behavior was video-monitored for 30 min on Day 1 and Day 7. On Day 7 skin was collected from vehicle and MC903 treated mice for the Western Blot (WB) as described below. NC/Nga mice (Charles River, Yokohama, Japan) were sensitized and challenged with house dust mite (HDM) allergen (Dermatophagoides farina, Greer, Lenoir, N.C., United States of Amercia) as described previously (Fukuyama et al., 2018). […] Scratching behavior was video monitored for 60 min period immediately after HDM on day 42. […] The amount of periostin was determined using ELISA according to the manufacturer's instruction.
A mouse model of atopic dermatitis in mice is generated. […] At Day 10, vehicle or the compound (at least one dose) is administered intravenous/orally to the animals, and then measured the scratching behaviors for at least 60 min. In order to see the sub-chronic effect of the compound, vehicle and the compound is administered to MC903-treated animals for several days and the alteration of the scratching behaviors is measured.

[2] = system: Mouse bone marrow-derived mast cells; experiment: Mast cell degranulation (β-hexoseaminidase release); format: cell-based; details: increasing concentrations, 30 minutes challenge
Experimental: Mouse bone marrow-derived mast cells were cultured from femurs of C57B1/6J mice as described (Jensen et al., 2006). Degranulation was assessed by measuring β-hexoseaminidase release as described (Cruse et al., 2013) using mast cells sensitized with 100 ng/mL anti-DNP IgE (SPE7 clone) (Sigma Aldrich, St. Louis, Miss., United States of America) for 16 hours, before the cells were challenged for 30 minutes with the indicated stimulus.

BMMC mast cells = experiment: Calcium imaging on mast cells; format: cell-based, mouse; details: mast cells stimulated with periostin alone
Experimental: Changes in cytosolic Ca^2+ were assayed using ratiometric Fura-2 AM measurements as described (Cruse et al., 2013). Fluorescence was measured at two excitation wavelengths (340 and 380 nm) and an emission wavelength of 510 nm using a BioTek Neo2 multimode plate reader (BioTek, Winooski, Vt., United States of America). The ratio of fluorescence readings was calculated following subtraction of background fluorescence of cells not loaded with Fura-2 AM.

SST-positive DRG neurons = experiment: Whole-cell patch clamp recordings in SST-positive mouse DRG neurons; format: cell-based
Experimental: DRGs were removed aseptically from SOM-reporter mice (6-8 weeks) and incubated with collagenase (1.25 mg/ml)/dispase-II (2.4 units/ml) (both from Roche, Basel, Switzerland) at 37° C. for 90 min, then digested with 0.25% trypsin for 8 min at 37° C., followed by 0.25% trypsin inhibitor. Cells were mechanically dissociated with a flame polished Pasteur pipette in the presence of 0.05% DNAse I (Sigma, St. Louis, Miss., United States of America). DRG cells were plated on glass cover slips and grown in a neurobasal defined medium (with 2% B27 supplement, Invitrogen, Carlsbad, Calif., United States of America) with 5 μM AraC and 5% carbon dioxide at 36.5° C. DRG neurons were grown for 24 hours before use. Whole-cell patch clamp recordings were performed at room temperature using an Axopatch-700B amplifier (Axon Instruments, Foster City, Calif., United States of America) with a Digidata 1440B (Axon Instruments, Foster City, Calif., United States of America). Only SOM-positive neurons (<[…]) were recorded. […] Pipette resistance was 4-6 MΩ for whole-cell recording of periostin—induced inward currents, as previously recorded (Han et al., Neuron, 2018, PMID: 30033153)

T1 sequence (Q8BLA8 whole entry, the tested form may be a part): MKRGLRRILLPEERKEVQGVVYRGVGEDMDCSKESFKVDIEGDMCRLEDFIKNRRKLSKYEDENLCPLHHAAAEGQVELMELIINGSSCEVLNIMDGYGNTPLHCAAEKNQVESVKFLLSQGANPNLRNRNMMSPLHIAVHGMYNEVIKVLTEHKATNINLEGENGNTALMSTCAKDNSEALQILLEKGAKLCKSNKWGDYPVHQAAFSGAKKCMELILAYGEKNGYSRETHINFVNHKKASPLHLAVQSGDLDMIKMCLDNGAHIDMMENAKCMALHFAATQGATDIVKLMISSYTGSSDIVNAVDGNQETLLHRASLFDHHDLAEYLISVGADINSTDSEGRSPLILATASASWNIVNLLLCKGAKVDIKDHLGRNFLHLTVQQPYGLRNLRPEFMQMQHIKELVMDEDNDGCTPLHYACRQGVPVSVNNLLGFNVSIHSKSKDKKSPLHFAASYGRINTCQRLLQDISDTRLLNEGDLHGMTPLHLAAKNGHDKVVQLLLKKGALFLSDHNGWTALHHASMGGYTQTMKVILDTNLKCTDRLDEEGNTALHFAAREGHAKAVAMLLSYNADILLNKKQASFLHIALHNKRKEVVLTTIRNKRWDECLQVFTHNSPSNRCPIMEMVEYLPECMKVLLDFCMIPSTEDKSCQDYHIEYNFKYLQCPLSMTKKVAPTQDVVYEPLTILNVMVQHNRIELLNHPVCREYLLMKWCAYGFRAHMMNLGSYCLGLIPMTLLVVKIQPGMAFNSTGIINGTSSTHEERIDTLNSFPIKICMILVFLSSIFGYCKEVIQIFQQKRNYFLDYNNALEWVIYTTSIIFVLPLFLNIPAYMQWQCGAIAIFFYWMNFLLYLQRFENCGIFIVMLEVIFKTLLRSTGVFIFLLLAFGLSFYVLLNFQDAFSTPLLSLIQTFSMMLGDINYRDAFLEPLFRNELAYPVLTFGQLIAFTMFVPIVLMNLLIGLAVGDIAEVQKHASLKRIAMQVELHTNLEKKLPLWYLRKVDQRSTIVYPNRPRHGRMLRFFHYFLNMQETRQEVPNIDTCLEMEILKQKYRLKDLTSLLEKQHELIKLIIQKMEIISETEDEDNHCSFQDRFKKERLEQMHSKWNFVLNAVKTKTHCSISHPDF

With `CC(C)[C@H]1C(=O)N[C@@H](CCCN=C(N)N)C(=O)NCC(=O)N[C@@H](CC(=O)O)C(=O)N[C@H](Cc2ccccc2)C(=O)N1C` [cilengitide, cyclo RGDf-n(Me)V] the AITC-induced calcium response (TRPA1) was “did not reduce” and the MC903-induced spontaneous itching [1] was “significantly reduced”.

B1: periostin: fasciclin extracellular matrix protein, endogenous ligand of integrin αvβ3; mouse recombinant used (protein)
chain: NSYYDKVLAHSRIRGRDQGPNVCALQQILGTKKKYFSSCKNWYQGAICGKKTTVLYECCPGYMRMEGMKGCPAVMPIDHVYGTLGIVGATTTQHYSDVSKLREEIEGKGSYTYFAPSNEAWENLDSDIRRGLENNVNVELLNALHSHMVNKRMLTKDLKHGMVIPSMYNNLGLFINHYPNGVVTVNCARVIHGNQIATNGVVHVIDRVLTQIGTSIQDFLEAEDDLSSFRAAAITSDLLESLGRDGHFTLFAPTNEAFEKLPRGVLERIMGDKVASEALMKYHILNTLQCSEAITGGAVFETMEGNTIEIGCEGDSISINGIKMVNKKDIVTKNGVIHLIDEVLIPDSAKQVIELAGKQQTTFTDLVAQLGLASSLKPDGEYTLLAPVNNAFSDDTLSMDQRLLKLILQNHILKVKVGLSDLYNGQILETIGGKQLRVFVYRTAICIENSCMVRGSKQGRNGAIHIFREIIQPAEKSLHDKLRQDKRFSIFLSLLEAADLKDLLTQPGDWTLFAPTNDAFKGMTSEERELLIGDKNALQNIILYHLTPGVYIGKGFEPGVTNILKTTQGSKIYLKGVNETLLVNELKSKESDIMTTNGVIHVVDKLLYPADIPVGNDQLLELLNKLIKYIQIKFVRGSTFKEIPMTVYRPAMTKIQIEGDPDFRLIKEGETVTEVIHGEPVIKKYTKIIDGVPVEITEKQTREERIITGPEIKYTRISTGGGETGETLQKFLQKEVSKVTKFIEGGDGHLFEDEEIKRLLQGDTPAKKIPANKRVQGPRRRSREGRSQ
For B1, the “degranulation of anti-DNP IgE-sensitized mast cells” value [2] was “no degranulation”, the “calcium release in mast cells” value (BMMC mast cells) was “no periostin-dependent change in calcium release” and the “inward current by periostin” value (SST-positive DRG neurons; periostin 1 μg/ml, pilot data) was “weak inward currents”. For the same molecule, the “average inward current by periostin” value (SST-positive DRG neurons; periostin 10 μg/ml, 8 neurons from 4 mice) was 58.4 pA.
